According to IntAct's records for PubMed 21771788:

B1: Cytoplasmic 60S subunit biogenesis factor ZNF622 (Homo sapiens), Q969S3 (parent)
chain: MATYTCITCRVAFRDADMQRAHYKTDWHRYNLRRKVASMAPVTAEGFQERVRAQRAVAEEESKGSATYCTVCSKKFASFNAYENHLKSRRHVELEKKAVQAVNRKVEMMNEKNLEKGLGVDSVDKDAMNAAIQQAIKAQPSMSPKKAPPAPAKEARNVVAVGTGGRGTHDRDPSEKPPRLQWFEQQAKKLAKQQEEDSEEEEEDLDGDDWEDIDSDEELECEDTEAMDDVVEQDAEEEEAEEGPPLGAIPITDCLFCSHHSSSLMKNVAHMTKDHSFFIPDIEYLSDIKGLIKYLGEKVGVGKICLWCNEKGKSFYSTEAVQAHMNDKSHCKLFTDGDAALEFADFYDFRSSYPDHKEGEDPNKAEELPSEKNLEYDDETMELILPSGARVGHRSLMRYYKQRFGLSRAVAVAKNRKAVGRVLQQYRALGWTGSTGAALMRERDMQYVQRMKSKWMLKTGMKNNATKQMHFRVQVRF
B2: Mitogen-activated protein kinase kinase kinase 5 (Homo sapiens), Q99683 (parent)
chain: MSTEADEGITFSVPPFAPSGFCTIPEGGICRRGGAAAVGEGEEHQLPPPPPGSFWNVESAAAPGIGCPAATSSSSATRGRGSSVGGGSRRTTVAYVINEASQGQLVVAESEALQSLREACETVGATLETLHFGKLDFGETTVLDRFYNADIAVVEMSDAFRQPSLFYHLGVRESFSMANNIILYCDTNSDSLQSLKEIICQKNTMCTGNYTFVPYMITPHNKVYCCDSSFMKGLTELMQPNFELLLGPICLPLVDRFIQLLKVAQASSSQYFRESILNDIRKARNLYTGKELAAELARIRQRVDNIEVLTADIVINLLLSYRDIQDYDSIVKLVETLEKLPTFDLASHHHVKFHYAFALNRRNLPGDRAKALDIMIPMVQSEGQVASDMYCLVGRIYKDMFLDSNFTDTESRDHGASWFKKAFESEPTLQSGINYAVLLLAAGHQFESSFELRKVGVKLSSLLGKKGNLEKLQSYWEVGFFLGASVLANDHMRVIQASEKLFKLKTPAWYLKSIVETILIYKHFVKLTTEQPVAKQELVDFWMDFLVEATKTDVTVVRFPVLILEPTKIYQPSYLSINNEVEEKTISIWHVLPDDKKGIHEWNFSASSVRGVSISKFEERCCFLYVLHNSDDFQIYFCTELHCKKFFEMVNTITEEKGRSTEEGDCESDLLEYDYEYDENGDRVVLGKGTYGIVYAGRDLSNQVRIAIKEIPERDSRYSQPLHEEIALHKHLKHKNIVQYLGSFSENGFIKIFMEQVPGGSLSALLRSKWGPLKDNEQTIGFYTKQILEGLKYLHDNQIVHRDIKGDNVLINTYSGVLKISDFGTSKRLAGINPCTETFTGTLQYMAPEIIDKGPRGYGKAADIWSLGCTIIEMATGKPPFYELGEPQAAMFKVGMFKVHPEIPESMSAEAKAFILKCFEPDPDKRACANDLLVDEFLKVSSKKKKTQPKLSALSAGSNEYLRSISLPVPVLVEDTSSSSEYGSVSPDTELKVDPFSFKTRAKSCGERDVKGIRTLFLGIPDENFEDHSAPPSPEEKDSGFFMLRKDSERRATLHRILTEDQDKIVRNLMESLAQGAEEPKLKWEHITTLIASLREFVRSTDRKIIATTLSKLKLELDFDSHGISQVQVVLFGFQDAVNKVLRNHNIKPHWMFALDSIIRKAVQTAITILVPELRPHFSLASESDTADQEDLDVEDDHEEQPSNQTVRRPQAVIEDAVATSGVSTLSSTVSHDSQSAHRSLNVQLGRMKIETNRLLEELVRKEKELQALLHRAIEEKDQEIKHLKLKSQPIEIPELPVFHLNSSGTNTEDSELTDWLRVNGADEDTISRFLAEDYTLLDVLYYVTRDDLKCLRLRGGMLCTLWKAIIDFRNKQT
partner: B1 chain

Variants of: B1
Settings: with m3k5_human MAP3K5, Q99683

Row | effect of a mutation on the interaction | Variant
1 | decreasing interaction | MATYTCITCRVAFRDADMQRAHYKTDWHRYNLRRKVASMAPVTAEGFQERVRAQRAVAEEESKGSATYCTVCSKKFASFNAYENHLKSRRHVELEKKAVQAVNRKVEMMNEKNLEKGLGVDSVDKDAMNAAIQQAIKAQPSMSPKKAPPAPAKEARNVVAVGTGGRGTHDRDPSEKPPRLQWFEQQAKKLAKQQEEDSEEEEEDLDGDDWEDIDSDEELECEDTEAMDDVVEQDAEEEEAEEGPPLGAIPITDCLFCSHHSSSLMKNVAHMTKDHSFFIPDIEYLSDIKGLIKYLGEKVGVGKICLWSNEKGKSFYSTEAVQAHMNDKSHCKLFTDGDAALEFADFYDFRSSYPDHKEGEDPNKAEELPSEKNLEYDDETMELILPSGARVGHRSLMRYYKQRFGLSRAVAVAKNRKAVGRVLQQYRALGWTGSTGAALMRERDMQYVQRMKSKWMLKTGMKNNATKQMHFRVQVRF [C308S]
2 | decreasing interaction | MATYTCITCRVAFRDADMQRAHYKTDWHRYNLRRKVASMAPVTAEGFQERVRAQRAVAEEESKGSATYCTVCSKKFASFNAYENHLKSRRHVELEKKAVQAVNRKVEMMNEKNLEKGLGVDSVDKDAMNAAIQQAIKAQPSMSPKKAPPAPAKEARNVVAVGTGGRGTHDRDPSEKPPRLQWFEQQAKKLAKQQEEDSEEEEEDLDGDDWEDIDSDEELECEDTEAMDDVVEQDAEEEEAEEGPPLGAIPITDCLFCSHHSSSLMKNVAHMTKDHSFFIPDIEYLSDIKGLIKYLGEKVGVGKISLWCNEKGKSFYSTEAVQAHMNDKSHCKLFTDGDAALEFADFYDFRSSYPDHKEGEDPNKAEELPSEKNLEYDDETMELILPSGARVGHRSLMRYYKQRFGLSRAVAVAKNRKAVGRVLQQYRALGWTGSTGAALMRERDMQYVQRMKSKWMLKTGMKNNATKQMHFRVQVRF [C305S]
3 | disrupting interaction | MATYTCITCRVAFRDADMQRAHYKTDWHRYNLRRKVASMAPVTAEGFQERVRAQRAVAEEESKGSATYCTVCSKKFASFNAYENHLKSRRHVELEKKAVQAVNRKVEMMNEKNLEKGLGVDSVDKDAMNAAIQQAIKAQPSMSPKKAPPAPAKEARNVVAVGTGGRGTHDRDPSEKPPRLQWFEQQAKKLAKQQEEDSEEEEEDLDGDDWEDIDSDEELECEDTEAMDDVVEQDAEEEEAEEGPPLGAIPITDCLFCSHHSSSLMKNVAHMTKDHSFFIPDIEYLSDIKGLIKYLGEKVGVGKISLWSNEKGKSFYSTEAVQAHMNDKSHCKLFTDGDAALEFADFYDFRSSYPDHKEGEDPNKAEELPSEKNLEYDDETMELILPSGARVGHRSLMRYYKQRFGLSRAVAVAKNRKAVGRVLQQYRALGWTGSTGAALMRERDMQYVQRMKSKWMLKTGMKNNATKQMHFRVQVRF [C305S;C308S]

Variants of: B2
Settings: with zn622_human ZNF622, Q969S3

Row | effect of a mutation on the interaction | Variant
4 | disrupting interaction | C1351S;C1360S
5 | decreasing interaction | C1351S
6 | decreasing interaction | C1360S

Variants of: B2
Settings: with zn622_human ZNF622, Q969S3
Remark: another data set of the same source

Row | effect of a mutation on the interaction | Variant
7 | disrupting interaction | C1351S;C1360S
